Laboratory results from US20150316552A1, “Human Notch Receptor Mutations and Their Use” (OncoMed Pharmaceuticals, Inc., priority 2011, published 2015).
“Also recorded” adds a separate entry of the source.

Columns and labels:
OMP-C63 colon cancer = assay: OMP-C63 colon cancer, sensitivity to treatment; assay type: in vivo; settings: elevated NOTCH1-ICD, no known NOTCH1 mutation; FIG. 11
[1] = tested on: OMP-LU61 small cell lung cancer; assay: OMP-LU61 small cell lung cancer, sensitivity to treatment; assay type: in vivo; settings: elevated NOTCH1-ICD, no known NOTCH1 mutation; FIG. 10
OMP-C11 tumor cells = assay: OMP-C11 xenograft, tumor growth; assay type: in vivo, mice; settings: 15 mg/kg twice weekly IP, Day 54; H-score approximately 34
Procedure: Twenty thousand OMP-C11 tumor cells were resuspended in injection media composed of PBS and 0.5× matrigel and injected subcutaneously into mice. The N1.ICD IHC H-score of OMP-C11 cells is approximately 34. The OMP-C11 cells are heterozygous mutant for FBW7. Treatment was initiated 1 day after tumor cell injection and continued for the duration of the experiment. The mice received either 15 mg/kg LZ1 control antibody or OMP-52M51 anti-NOTCH1 antibody twice weekly, either as a single therapy or in combination with 7.5 mg/kg Irinotecan administered once weekly. The antibodies and irinotecan were administered by IP injection. Tumor volume is shown as Mean±SEM, n=10 animals per group. OMP-52M51 alone reduced tumor growth to 53% of the tumor growth observed in the control antibody treated group (Day 54, p=0.046).

OMP-C20 tumor cells = assay: OMP-C20 xenograft, tumor growth; assay type: in vivo, mice; settings: 15 mg/kg twice weekly IP, Day 70; H-score approximately 58
Procedure: One hundred eighty thousand OMP-C20 tumor cells were resuspended in injection media composed of PBS and 0.5× matrigel and injected subcutaneously. The N1.ICD IHC H-score of OMP-C20 cells is approximately 58. The OMP-C20 cells are heterozygous mutant for FBW7. Treatment was initiated 1 day after tumor cell injection and continued for the duration of the experiment. The mice received either 15 mg/kg 1B7.11 control antibody or OMP-52M51 anti-NOTCH1 antibody twice weekly, either as a single therapy or in combination with 7.5 mg/kg Irinotecan administered once weekly. The antibodies and irinotecan were administered by IP injection. Tumor volume is shown as Mean±SEM, n=10 animals per group. OMP-52M51 alone reduced tumor growth to 34% of the tumor growth observed in the control antibody treated group (Day 70, p=<0.001).

NOTCH1.ICD = NOTCH1.ICD IHC of treated OMP-B40 tumors; assay type: in vivo, NOD/SCID mice; settings: OMP-B40 tumors from treated mice; FIGS. 3C and D
Procedure: NOTCH1.ICD Immunohistochemistry (IHC) staining was performed with a tyramide signal amplification (TSA) modification of standard IHC protocol. Slides were de-waxed and rehydrated then subjected to antigen retrieval in DAKO TRS solution (DAKO # S1699) under heat and pressure in a BioCare Decloaker benchtop pressure cooker. Endogenous peroxidase was blocked with 6% H2O2 in phosphate buffered saline, then protein block was applied (CAS block, Invitrogen #008120). Primary antibody was incubated overnight at 4° C. at an appropriate dilution. Sections were then incubated with DAKO rabbit HRP polymer (DAKO # K4011), followed by FITC labeled TSA substrate (Perkin Elmer # NEL701001KT). FITC was then detected with HRP-conjugated anti-FITC antibodies (Rockland # RL700-103-096), and DAB substrate (DAKO # K3468) added to visualize the antibody-detection complex.
OMP-B40 tumors were harvested from control and OMP-52M51-treated mice with or without paclitaxel. IHC analysis was performed on tumors from OMP-B40 to detected the activated form of NOTCH1 using a rabbit polyclonal antibody that specifically recognizes NOTCH1-ICD. […] Thus, the NOTCH1-ICD IHC assay serves as key biomarker for OMP-52M51 and can be used to monitor pharmacodynamic response and NOTCH pathway activity in tumor tissues.

OMP-LU33 lung tumors = assay: OMP-LU33 lung tumor, sensitivity to treatment; assay type: in vivo; settings: no NOTCH1-ICD staining; data not shown
OMP-B40 breast tumors = assay: Tumorigenicity of cells from treated OMP-B40 tumors; assay type: in vivo; settings: 1000 cells from tumors treated 15 mg/kg twice per week, injected into 10 mice, no further treatment; control 10 of 10
Procedure: The effect of NOTCH1 treatment on cancer stem cell frequency was also analyzed in OMP-B40 tumors. OMP-B40 breast tumors were treated with a either a control mAb or OMP-52M51 (15 mg/kg twice per week), isolated, dissociated into single cells and the human tumor cells in the xenograft were purified by negative selection with anti-mouse antibodies. One thousand tumor cells from the control and OMP-52M51 treated tumors were injected into 10 mice each. Tumors were allowed to grow for 92 days without further treatment. Tumor volumes on day 92 are shown in FIG. 4 for the control group (black squares) and OMP-52M51 group (gray circles).

B1: OMP-52M51: humanized anti-NOTCH1 antibody, plasmid ATCC PTA-9549; heavy chain variable region SEQ ID NO:14, light chain variable region SEQ ID NO:18 (antibody, V domains shown)
VH: QVQLVQSGAEVKKPGASVKISCKVSGYTLRGYWIEWVRQAPGKGLEWIGQILPGTGRTNYNEKFKGRVTMTADTSTDTAYMELSSLRSEDTAVYYCARFDGNYGYYAMDYWGQGTTVTVSSA
VL: SGVDSQAVVTQEPSLTVSPGGTVTLTCRSSTGAVTTSNYANWFQQKPGQAPRTLIGGTNNRAPGVPARFSGSLLGGKAALTLSGAQPEDEAEYYCALWYSNHWVFGGGTKLTVLG
modifications: 52M51-H4 heavy chain variable region amino acid sequence without putative signal sequence; 52M51-L3 light chain variable region amino acid sequence without putative signal sequence
OMP-C63 colon cancer
  sensitivity to treatment: significant sensitivity
[1]
  sensitivity to treatment: significant sensitivity
OMP-C11 tumor cells
  tumor growth as % of control antibody treated group: 53%
OMP-C20 tumor cells
  tumor growth as % of control antibody treated group: 34%
NOTCH1.ICD
  NOTCH1.ICD accumulation detected by IHC: reduction in NOTCH1.ICD; also recorded: blocks NOTCH-ICD accumulation in the nucleus; also recorded: blocks NOTCH1.ICD accumulation
OMP-LU33 lung tumors
  sensitivity to treatment: did not show significant sensitivity
OMP-B40 breast tumors
  mice with detectable tumor growth at day 92: 2 out of 10
